Measurements from the supplement of paper PMC10567573.

B1: C2orf65 (parent)
chain: QLDWDELETNQQHFHALCHSLLVS
B2: SLC19A2 (parent)
chain: FHHIPSTCQRVNGIKVQNGGIVTD

Variants of: B1
Assay: protein stability index of a GFP-peptide fusion (GPS, HEK-293T) (PSI 1-6); higher = more stable
Conditions: c terminus: a fixed tail appended
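Note: lentivirally expressed fusions sorted by FACS into six bins by GFP to DsRed ratio, PSI derived from sequencing read proportions per bin multiplied by bin number.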

Variant	protein stability index
QLDWDELETNQQHFHALCHSLLVN [S24N]	2.25
QLDWDELETNQQHFHALCHSLLVK [S24K]	2.27
QLDWDELETNQQHFHALCHSLLVF [S24F]	1.7
QLDWDELETNQQHFHALCHSLLVM [S24M]	2.02
QLDWDELETNQQHFHALCHSLLVH [S24H]	2.33
QLDWDELETNQQHFHALCHSLLVG [S24G]	1.78
QLDWDELETNQQHFHALCHSLLVY [S24Y]	2.54
QLDWDELETNQQHFHALCHSLLVI [S24I]	2.99
QLDWDELETNQQHFHALCHSLLVP [S24P]	2.5
QLDWDELETNQQHFHALCHSLLVR [S24R]	2.1
QLDWDELETNQQHFHALCHSLLVV [S24V]	1.56
QLDWDELETNQQHFHALCHSLLVW [S24W]	1.38
QLDWDELETNQQHFHALCHSLLVL [S24L]	2.73
QLDWDELETNQQHFHALCHSLLVQ [S24Q]	2.04
QLDWDELETNQQHFHALCHSLLVT [S24T]	1.89

Variants of: B2
Assay: as above
Conditions: c terminus: a fixed tail appended

Variant	protein stability index
FHHISSTCQRVNGIKVQNGGIVTD [P5S]	3.55
FHHIMSTCQRVNGIKVQNGGIVTD [P5M]	2.23
FHHINSTCQRVNGIKVQNGGIVTD [P5N]	2.11
FHHIKSTCQRVNGIKVQNGGIVTD [P5K]	2.61
FHHIQSTCQRVNGIKVQNGGIVTD [P5Q]	1.89
FHHIESTCQRVNGIKVQNGGIVTD [P5E]	2.83
FHHIISTCQRVNGIKVQNGGIVTD [P5I]	1.97
FHHIDSTCQRVNGIKVQNGGIVTD [P5D]	2.71
FHHICSTCQRVNGIKVQNGGIVTD [P5C]	1.86
FHHIWSTCQRVNGIKVQNGGIVTD [P5W]	2.91
FHHIGSTCQRVNGIKVQNGGIVTD [P5G]	2.12
FHHIYSTCQRVNGIKVQNGGIVTD [P5Y]	2.33
FHHILSTCQRVNGIKVQNGGIVTD [P5L]	1.86
FHHIRSTCQRVNGIKVQNGGIVTD [P5R]	1.58
FHHIASTCQRVNGIKVQNGGIVTD [P5A]	1.97
FHHIVSTCQRVNGIKVQNGGIVTD [P5V]	1.91
FHHIHSTCQRVNGIKVQNGGIVTD [P5H]	1.79
FHHITSTCQRVNGIKVQNGGIVTD [P5T]	2.67
FHHNPSTCQRVNGIKVQNGGIVTD [I4N]	2.07
FHHAPSTCQRVNGIKVQNGGIVTD [I4A]	2.11
FHHVPSTCQRVNGIKVQNGGIVTD [I4V]	1.67
FHHLPSTCQRVNGIKVQNGGIVTD [I4L]	2.37
FHHGPSTCQRVNGIKVQNGGIVTD [I4G]	2.48
FHHPPSTCQRVNGIKVQNGGIVTD [I4P]	2.37
FHHRPSTCQRVNGIKVQNGGIVTD [I4R]	2.02
FHHCPSTCQRVNGIKVQNGGIVTD [I4C]	1.67
FHHSPSTCQRVNGIKVQNGGIVTD [I4S]	3.05

Variant	protein stability index
FHHEPSTCQRVNGIKVQNGGIVTD [I4E]	2.77
FHHMPSTCQRVNGIKVQNGGIVTD [I4M]	2.01
FHHYPSTCQRVNGIKVQNGGIVTD [I4Y]	2.67
FHHHPSTCQRVNGIKVQNGGIVTD [I4H]	1.85
FHHKPSTCQRVNGIKVQNGGIVTD [I4K]	1.94
FHHTPSTCQRVNGIKVQNGGIVTD [I4T]	2
FHHQPSTCQRVNGIKVQNGGIVTD [I4Q]	2.1
FHHDPSTCQRVNGIKVQNGGIVTD [I4D]	2.91
FHHFPSTCQRVNGIKVQNGGIVTD [I4F]	3.14
FHHIPSTCKRVNGIKVQNGGIVTD [Q9K]	1.55
FHHIPSTCNRVNGIKVQNGGIVTD [Q9N]	2.08
FHHIPSTCMRVNGIKVQNGGIVTD [Q9M]	2.27
FHHIPSTCERVNGIKVQNGGIVTD [Q9E]	2.29
FHHIPSTCRRVNGIKVQNGGIVTD [Q9R]	1.77
FHHIPSTCHRVNGIKVQNGGIVTD [Q9H]	1.78
FHHIPSTCTRVNGIKVQNGGIVTD [Q9T]	1.84
FHHIPSTCIRVNGIKVQNGGIVTD [Q9I]	1.65
FHHIPSTCGRVNGIKVQNGGIVTD [Q9G]	1.68
FHHIPSTCARVNGIKVQNGGIVTD [Q9A]	1.46
FHHIPSTCSRVNGIKVQNGGIVTD [Q9S]	1.67
FHHIPSTCDRVNGIKVQNGGIVTD [Q9D]	1.8
FHHIPSTCCRVNGIKVQNGGIVTD [Q9C]	2.13
FHHIPSTCVRVNGIKVQNGGIVTD [Q9V]	2.04
FHHIPSTCPRVNGIKVQNGGIVTD [Q9P]	1.81
FHHIPSTCLRVNGIKVQNGGIVTD [Q9L]	2.92
FHHIPSTCFRVNGIKVQNGGIVTD [Q9F]	2.35
FHHIPSACQRVNGIKVQNGGIVTD [T7A]	1.39

Variant	protein stability index
FHHIPSRCQRVNGIKVQNGGIVTD [T7R]	1.77
FHHIPSPCQRVNGIKVQNGGIVTD [T7P]	1.91
FHHIPSLCQRVNGIKVQNGGIVTD [T7L]	2.59
FHHIPSKCQRVNGIKVQNGGIVTD [T7K]	2.23
FHHIPSYCQRVNGIKVQNGGIVTD [T7Y]	1.91
FHHIPSGCQRVNGIKVQNGGIVTD [T7G]	1.57
FHHIPSCCQRVNGIKVQNGGIVTD [T7C]	2.21
FHHIPSSCQRVNGIKVQNGGIVTD [T7S]	2.31
FHHIPSMCQRVNGIKVQNGGIVTD [T7M]	2.03
FHHIPSVCQRVNGIKVQNGGIVTD [T7V]	2
FHHIPSECQRVNGIKVQNGGIVTD [T7E]	2.32
FHHIPSFCQRVNGIKVQNGGIVTD [T7F]	3.29
FHHIPSQCQRVNGIKVQNGGIVTD [T7Q]	1.83
FHHIPSICQRVNGIKVQNGGIVTD [T7I]	1.45
FHHIPSNCQRVNGIKVQNGGIVTD [T7N]	2.42
FHHIPSHCQRVNGIKVQNGGIVTD [T7H]	2.3
FHHIPSDCQRVNGIKVQNGGIVTD [T7D]	2.58
HHHIPSTCQRVNGIKVQNGGIVTD [F1H]	3.53
EHHIPSTCQRVNGIKVQNGGIVTD [F1E]	4.27
LHHIPSTCQRVNGIKVQNGGIVTD [F1L]	2.81
AHHIPSTCQRVNGIKVQNGGIVTD [F1A]	3.95
QHHIPSTCQRVNGIKVQNGGIVTD [F1Q]	3.71
WHHIPSTCQRVNGIKVQNGGIVTD [F1W]	1.85
PHHIPSTCQRVNGIKVQNGGIVTD [F1P]	3.84
MHHIPSTCQRVNGIKVQNGGIVTD [F1M]	3.33
